Experimental findings from patent US20090104177A1, “PEPTIDES FOR INHIBITING THE INTERACTION OF PROTEIN KINASE A AND PROTEIN KINASE A ANCHOR PROTEINS” (FORSCHUNGSVERBUND BERLIN E.V., priority 2004, published 2009) are described below.

Experiment [1] relates to RII subunits of the PKAs. The experiment is described as follows: Summary statement on RII binding of AKAP18δ-derived negative control peptides. As to conditions: negative controls; in words. From the text:
They have in common that binding is no longer present due to structural differences (1, 2) or differences in charge (3, 4).

Experiment [2] has as its target T1, regulatory RIIα subunits of PKA (Homo sapiens, UniProt P13861).
T1 construct: Prof; Dr. Friedrich W. Herberg, University of Kassel, Germany (obtained from an academic laboratory, not a vendor)
Kind of experiment: RII overlay of membrane-bound (SPOT) peptides, radiolabelled RIIα as probe, densitometry. As to conditions: for binding to RIIα subunits in RII overlay: human RIIα as probe, in words. Format: binding. From the text:
(§1) Peptide libraries were synthesized by means of automatic SPOT synthesis on Whatman 50 cellulose membranes according to standard protocols using Fmoc chemistry and AutoSpot Robot ATE 222 (Intavis Bioanalytical Instruments AG, Cologne). The protective groups of the amino acid side chains were removed using a mixture of trifluoroacetic acid (TFA) in dichloromethane (DCM) (Frank, 1992; Kramer and Schneider-Mergener, 1998). For control, spots (about 50 nmol of peptide per spot) were cut from the cellulose membrane, removed from the membrane by treatment with 0.05 M NaOH, and analyzed using HPLC and MALDI-TOF mass spectrometry.
(§2) • 1. Regulatory RIIα (human) and RIIβ (rat) subunits of PKA, obtained from Prof. Dr. Friedrich W. Herberg, University of Kassel, Germany. • 2. Catalytic subunits of PKA, Promega, Mannheim, Germany, Order No. V5161 • 3. [γ-^32P]ATP, 5000 Ci/mmol, Amersham Biosciences, Brunswick, Germany, Order No. AA0018 • 4. Sephadex G 50, medium Pharmacia, Order No. 17-0043-01 • 5. Phosphate-buffered saline (PBS)
(§3) The ATP concentration was adjusted to 10 μM by addition of non-radioactive ATP (addition of 5 μl of a 1 mM solution). The batch was incubated on ice for another 50 min.
(§4) The reaction was quenched by adding dextran blue and removing free nucleotides. The free ATP was removed on a Sephadex G50 column.
(§5) Non-incorporated nucleotides were separated from the RII subunits by fractionation on Sephadex G 50 columns. • 1. Swelling of the Sephadex G 50 material: 20 g thereof was allowed to swell in 400 ml of PBS at room temperature overnight. Non-settled material was subsequently removed with a Pasteur pipette. The swollen material was aliquoted in 50 ml Falcon tubes and stored at 4° C. For preservation, sodium azide was added to make a final concentration of 0.01%. • 2. The material was poured into a 10 ml sterile disposable pipette sealed with a glass sphere. To settle the column bed, 50 ml of PBS containing 1 mg/ml BSA (bovine serum albumin) was allowed to pass.
(§6) Until used, the column was sealed with parafilm at the top thereof. • 3. The labelled RII subunits (500 μl), together with dextran blue (70 μl of a 20 mg/ml solution), were applied on the column (overall volume=570 μl). • 4. The sample was allowed to migrate into the matrix, followed by filling up with PBS. • 5. A short time before the dextran blue was eluted, collection of fractions was begun (2 fractions of 1.5 ml each, the other fractions 1 ml each). • 6. To determine the incorporation of ^32P, 1% (5.7 μl) of sample upstream of the column (corresponding to 1% of the radioactivity employed) and 3 μl of each fraction were used. • 7. The fractions of the first peak including the probe were combined. The incorporation rate in % was calculated and the specific activity (cpm/μg of protein) was determined.
(§7) • 1. The proteins (40 μg) were separated by means of SDS-PAGE and transferred on a PVDF membrane (PVDF: polyvinylidene fluoride) using a semi-dry electroblotting procedure. The membrane-associated proteins were stained with Ponceau S in order to identify the marker proteins on the membrane. Destaining was effected using TBS. • 2. The membrane was incubated in Blotto/BSA at 4° C. for 16 hours:
(§8) • 3. Blotto/BSA was replaced with fresh one and ^32P-labelled RII subunits were added (10^5 cpm/ml). This was incubated for 4-6 h at room temperature. • 4. The membrane was washed for 4×15 min in Blotto/BSA and for 2×10 min in 10 mM potassium phosphate buffer, pH 7.4, 0.15 M NaCl. • 5. RII-binding proteins were detected by exposition on a phosphoimager plate.
(§9) Identification of AKAP18δ-derived peptides inhibiting the interaction of AKAP proteins with the regulatory RIIα and RIIβ subunits of PKA. A: Peptides derived from the PKA binding domain of AKAP18δ were synthesized on two membranes. The membranes were incubated with radiolabelled regulatory RIIα (upper row) or RIIβ subunits (row below) of the PKA (RII overlay experiment). […]

Experiment [3] concerns the target T2, regulatory RIIβ subunits of PKA (Rattus norvegicus, UniProt P12369).
T2 construct: Prof; Dr. Friedrich W. Herberg, University of Kassel, Germany (obtained from an academic laboratory, not a vendor)
The experiment is described as follows: RII overlay of membrane-bound (SPOT) peptides, radiolabelled RIIβ as probe, densitometry. Format: binding. As to conditions: in words.
Description: as §1, §2, §3, §4, §5, §6, §7, §8, §9

The target of experiment [4] is human RIIα subunits (Homo sapiens, UniProt P13861). The experiment is described as follows: Surface plasmon resonance measurement of peptide binding to RIIα.
human RIIα subunits, sequence (P13861 whole entry): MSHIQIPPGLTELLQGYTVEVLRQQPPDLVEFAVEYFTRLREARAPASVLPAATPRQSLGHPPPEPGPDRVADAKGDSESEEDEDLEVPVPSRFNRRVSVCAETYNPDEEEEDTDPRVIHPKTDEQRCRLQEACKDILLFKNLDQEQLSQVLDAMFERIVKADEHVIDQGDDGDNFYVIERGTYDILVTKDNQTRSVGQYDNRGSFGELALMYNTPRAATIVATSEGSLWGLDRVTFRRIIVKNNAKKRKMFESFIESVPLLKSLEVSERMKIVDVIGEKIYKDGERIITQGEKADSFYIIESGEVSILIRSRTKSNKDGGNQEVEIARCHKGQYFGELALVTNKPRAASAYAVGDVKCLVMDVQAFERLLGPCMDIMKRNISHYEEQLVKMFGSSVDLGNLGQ
Experiment [5] addresses RIIβ subunits from rats (Rattus norvegicus, UniProt P12369). Kind of experiment: Surface plasmon resonance measurement of peptide binding to RIIβ. (In general: SPR reads the build-up and loss of mass on a sensor chip optically.)
For experiment [6], the target named is T3, regulatory RIIα subunit of PKA (human) (human, UniProt P13861 1-404, 32P-labelled with the catalytic subunit of PKA when used as probe in the RII overlay experiments).
T3 construct: Radiolabelled probe in RII overlays; format in the surface plasmon resonance measurements is not described; also called human RIIα
T3 sequence (P13861 whole entry): as above
The experiment is described as follows: RII overlay: SPOT peptide on membrane, 32P-labelled RIIα probe, phosphoimager, densitometry as % of AKAP18δ-wt.

For experiment [7], the target named is T4, regulatory RIIβ subunit of PKA (rat) (rat, UniProt P12369 1-416, 32P-labelled with the catalytic subunit of PKA when used as probe in the RII overlay experiments).
T4 construct: Radiolabelled probe in RII overlays; format in the surface plasmon resonance measurements is not described; also called RIIβ subunit of PKA from rats
T4 sequence (P12369 whole entry): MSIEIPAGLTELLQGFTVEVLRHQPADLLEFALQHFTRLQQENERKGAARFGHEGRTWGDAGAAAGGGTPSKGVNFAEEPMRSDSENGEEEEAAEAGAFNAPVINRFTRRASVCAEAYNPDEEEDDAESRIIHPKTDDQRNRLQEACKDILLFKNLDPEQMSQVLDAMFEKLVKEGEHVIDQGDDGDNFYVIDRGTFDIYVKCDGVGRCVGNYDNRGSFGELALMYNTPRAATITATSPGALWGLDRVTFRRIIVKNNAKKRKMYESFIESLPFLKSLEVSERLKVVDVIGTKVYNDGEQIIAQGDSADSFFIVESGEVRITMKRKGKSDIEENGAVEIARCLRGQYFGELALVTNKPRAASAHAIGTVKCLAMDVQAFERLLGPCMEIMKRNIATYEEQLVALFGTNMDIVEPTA
The experiment is described as follows: RII overlay: SPOT peptide on membrane, 32P-labelled RIIβ probe, phosphoimager, densitometry as % of AKAP18δ-wt.

Experiment [8] has as its target T3, regulatory RIIα subunit of PKA (human). Kind of experiment: RII overlay on SPOT membrane with radiolabelled RIIα.

No end group written: not given here.

T2 sequence (P12369 whole entry): as above
RIIβ subunits from rats, sequence (P12369 whole entry): as above
T1 sequence (P13861 whole entry): as the sequence (P13861 whole entry) above

“PEDAELVRLDKRLPENAPLKAVQQY (also: phosphorylated; listed as Homo sapiens) [AKAP18δ-phos]”: the “binding of RII subunits of the PKAs” value in experiment [1] is given as “absent binding”. As to “ANDARLVRLSKRLVENAVLKAVQQY [peptide No. 7]”, the “difference in binding of the two PKA subunits (RIIα vs RIIβ)” value in experiment [2] (RII overlay on two membranes, quantitative evaluation (FIG. 3)) is given as “marked difference”. Take ANDARLVRLNKRLVENAVLKAVQQY [10/11]: in experiment [2], the “binding to RIIα subunits in RII overlay” value is “bind RIIα”. The “binding to RIIβ subunits in RII overlay” value in experiment [3] is on record as “no RIIβ”. As for “ANDARLVRLSKRLYENAVLKAVQQY [A18δRIIα Hs2]”, the “binding to RIIα subunits in RII overlay” value in experiment [2] is listed as “binding to RIIα”. On to PEDAELVRLSKRLPENAPLKAVQQY [AKAP18δ-PP], for which the “RIIα binding KD” value in experiment [4] was “no binding”. In addition, in experiment [5], the “RIIβ binding KD” value is given as “no binding”. For the same molecule, the “binding of RII subunits of the PKAs” value in experiment [1] is reported as “absent binding”. As a reminder, the Kd is the equilibrium constant for the complex coming apart. The low end stands for a tighter complex, the high end for a looser complex. On to PEDAELVRLSKRLVENAVLKAVQQY [AKAP18δ-wt], for which the dissociation constant (Kd) lay within 0.4 to 1.5 nM in experiment [4] and 1 to 6 nM in experiment [5]. ANDARLVRLPKRLVENAVLKAVQQY [10/12]: in experiment [2], the “binding to RIIα subunits in RII overlay” value is reported as “bind RIIα”. For the same molecule, the “binding to RIIβ subunits in RII overlay” value in experiment [3] is “no RIIβ”.

For ANDARLVRLSKRLVENAVLKFVQQY [21/4], in experiment [2], the “binding to RIIα subunits in RII overlay” value is “vice versa”. Also, the “binding to RIIβ subunits in RII overlay” value in experiment [3] is reported as “vice versa”; in experiment [3] (listed as A18δRIIβRn1), “binding to RIIβ”; in experiment [3] (listed as A18δRIIβRnl) it was “selectively binds RIIβ subunits”. As to PEDAELVRLSKRLPENAVLKAVQQY [AKAP18δ-P], in experiment [4], the “RIIα binding KD” value was “no binding”. In experiment [5], the “RIIβ binding KD” value is “no binding”. Besides, in experiment [1], the “binding of RII subunits of the PKAs” value is reported as “absent binding”.

For the molecule “ANDARLVRLSKRLRENAVLKAVQQY [A18δRIIα Hs1]”, the “binding to RIIα subunits in RII overlay” value in experiment [2] was “binding to RIIα”. In the case of PEDAELVRLSKRLVENAVLQAVQQY (AKAP18δ-derived; also called No. N) [Peptide 14], the binding result in experiment [6] and in experiment [7] was “binds” each time. Regarding PEDAELVRLSKRLVENAVLNGQQQY (AKAP18δ-derived; also called No. P) [Peptide 16], the binding result in experiment [6] and in experiment [7] was “binds” each time. Consider PEDAELVRLSKRLVENAVKNGNQQY (AKAP18δ-derived; also called No. R) [Peptide 18], for which the binding result in experiment [6] and in experiment [7] was “binds” throughout. For the molecule PEDAELVRLSKRLVENAVKNGAQDY (AKAP18δ-derived; also called No. S) [Peptide 19], the binding result in experiment [6] and in experiment [7] was “binds” in each case. With PEDAELVRLSKRLVENAVLNGNQQY (AKAP18δ-derived; also called No. Q) [Peptide 17], the binding result in experiment [6] and in experiment [7] was “binds” each time. For the molecule PEDAELVRLSKRLVENAVLNGVQQY (AKAP18δ-derived; also called No. O) [Peptide 15], the binding result in experiment [6] and in experiment [7] was “binds” each time. For ANDARLVRLSKRLVENAVLKAVQQY (also called peptide 7; No. G) [peptide No. 7 (AKAP18δ-derived, FIG. 3)], the binding result in experiment [6] and in experiment [7] was “binds” in each case.

Turning to ASDAKTVRLSKRLVENAVLKAVQQY (AKAP18δ-derived; also called No. I) [Peptide 9], the binding result in experiment [6] and in experiment [7] was “binds” throughout.

B1: A18δRIIαHs2 (14/19) (peptide)
peptide: ANDARLVRLSKRLYENAVLKAVQQY
notes: Member of the substitution library of peptide 7 (row 14, peptide 19); also called No. CC
Consider B1, for which, in experiment [8], the binding result is “binds”. Consider ARDAKLVRLSKRLVENAVLKAVQQY (AKAP18δ-derived; also called No. E) [Peptide 5], for which the binding result in experiment [6] and in experiment [7] was “binds” each time. With ANDAKTQRLSQRLVENAVLKAVQQY (AKAP18δ-derived; also called No. L) [Peptide 12], the binding result in experiment [6] and in experiment [7] was “binds” each time. With ASDARLVRLSKRLVENAVLKAVQQY (AKAP18δ-derived; also called No. H) [Peptide 8], the binding result in experiment [6] and in experiment [7] was “binds” throughout. Regarding ARDAQLVRLSKRLVENAVLKAVQQY (AKAP18δ-derived; also called No. F) [Peptide 6], the binding result in experiment [6] and in experiment [7] was “binds” throughout. Consider ASDAQLVRLSKRLVENAVLKAVQQY (AKAP18δ-derived; also called No. C) [Peptide 3], for which the binding result in experiment [6] and in experiment [7] was “binds” in each case.

B2: A18δRIIαHs1 (14/14) (peptide)
peptide: ANDARLVRLSKRLRENAVLKAVQQY
notes: Member of the substitution library of peptide 7 (row 14, peptide 14); also called No. BB
Take B2: in experiment [8], the binding result is listed as “binds”. Turning to ANDAKTERLSKRLVENAVLKAVQQY (AKAP18δ-derived; also called No. J) [Peptide 10], the binding result in experiment [6] and in experiment [7] was “binds” each time.

For ASDAKLVRLSKRLVENAVLKAVQQY (AKAP18δ-derived; also called No. D) [Peptide 4], the binding result in experiment [6] and in experiment [7] was “binds” each time.

Turning to ANDAKTERLSQRLVENAVLKAVQQY (AKAP18δ-derived; also called No. K) [Peptide 11], the binding result in experiment [6] and in experiment [7] was “binds” each time.
